Laboratory results taken from the nanobody polyreactivity screen of Harvey et al. (2022).

Assay: yeast display, Sf9 membrane polyspecificity reagent, FACS + sequencing; frameworks hold sequencing errors
How it was run: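 Galactose-induced (36–48 hours) yeast carrying a synthetic nanobody display library were exposed to 10% biotinylated, detergent-solubilized Sf9 membrane reagent at 4 °C for 1 hour. FACS followed streptavidin microbead enrichment, using low and high (top ~1%) gates for expression (anti-HA) and reagent binding (streptavidin). Colony PCR, MiSeq 2 × 250 sequencing and CDR-length filtering followed. Labels for polyreactivity reflect the gate of origin.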

Row | Sequence | polyreactivity (PSR sort gate)
1 | QVQLGESGGGLVQAGGSLRLSCAASGRTFHGYAMGWYRQAPGKERELVARINWSDGRTYYADSVKGRFTISRDNAKNTVYLQMNSLKPEDTAVYYCAADKTVSYAPAWYYYWGQGTQVTVSS | low polyreactivity
2 | QVQLVESGGGLVQAGGSLRLSCAASGSTFVTYARGWYRQAPGKERELVAAISRRAGRTYYADSVKGRFTISRDNAQNTVSLQMNSLKPEDTAVYYCAKQAYEAFYTGDDYDYWGQGTKVTVSS | high polyreactivity
3 | QVQLVESGGGLVQAGGSHRLSCAASGIIFYDNTMGWYRQAPGKERELVASITWRGGSTYYADSVKGRFTISRDNAKNTFYLQMNSLKPEDTAVYYCNADSSDDYDYWGQGTQVTVSS | low polyreactivity
4 | QDQLVESGGGLVQAGGSLRLSCAASGSIFLDNAMGWYRQAPGKERELVAAISKSGTRTYYADSVKGRFTISRDNAKNTVYLQMNSLKPEDTAVYYCNVVPKQAKSVELIGYYYWGQGTQVTVSS | high polyreactivity
5 | QVQLVESGGGLVQAGGSLRLSCAASGSTFTYYSMGWDRQAPGKERELVAAISSNGGSTSYADSVKGRFTISRDNAKNTVYLQMNSLKPEDTAVYYCAAQVPLFGRYYWGQGTQVTVSS | high polyreactivity
6 | QVQLVESGGGLVQAGGSLRLSCAASGSTFSRNAMGWYRQAPGKERELVAAITSSGGSTYYADSVKGRFTISRDNAKNTVYLQMNSLKPEDTAVYYCAAPRRRHFDYWGQGTQVTVSS | high polyreactivity
7 | QVQLVESGGGLVQAGGSLRLSCAASGFIFVSYALGWYRQAPGKETELVAAISSSGGTTNYADSVKGRFTISRDNAKNTVYLQMNSLKPEDTAVYYCAAYVYQTPHSLHIYDYWGQGTQVTVSS | low polyreactivity
8 | QVQLVESGGGLVQAGGSLRLSCAASGRTFRPYAMGLYRQEPGKERELVAAITSGGSTYYADSVKGRLTFSRDNAKYTVYLQMNSLKTEDTAVYYCNAKYYYQPPYDYWVQGTQVTVSS | low polyreactivity
9 | QVQLVVSGGGLVQPGGSLRLSCAASGRTFPYYAMGWYIQAPGKERELVARITGSGTSTNYADSVKGRFTISRDKSKNTVYLKMNSLKPEDTAVYYCAAPKYGSYYIADYEYWGQGTHVTVSS | low polyreactivity
10 | QVQLVESGGGLVQAGGSLRLSCAASGYTFFRNTMGWYRQAPGKERELVAVITKSGGSTYYADSVKGRFTISRDNAKNTVYLQMNSLKPEDTAVYYCNAVNALRNTEYNYWGQGTQVTVSS | high polyreactivity
11 | QFQLVESGGGLVQPGGSLRLSCAASGGIFKRYAIGWYRQAPGKERELVAGISRRSGRTYYADSVKGRFTISRDNAKNTVYLQMNSLKPEDTAVFYCAARGIGGYDYWGHGTQVTVSS | high polyreactivity
12 | QVQLVESGGGLVQAGGSLRLSCAASGRTFDGYMGWYRQAPGKERELVAAISYDTGSTYADSVKGRFTISRDNAKNTVYLQMNSLKPEDTAVYYCYGYPYQTLYGYWGQGTQVTVSS | low polyreactivity
13 | QVQLVESGGGLVQAGGSLRLSCAASGSIFPWYAMGWYRQAPGKERELVAAITISGGSTHYADSVKGRFTISRDNAKNTVYLQMNSLKPEDTAVYYCATPRYPSYEYWGQGTQVTVSS | low polyreactivity
14 | QVQHVESGGGLVQAGGSLRLSCAASGSTIYWYAMGWYRQAPGKERELVAAISLSGGSTYYADSVKGRFTISRDNAKNTVYLQMNSLKPEDTAVYYCAARTSYYVYRHPSGRYDYWGQGTQVSVSS | low polyreactivity
15 | QVQLVESGGGLVQAGGSLRLSCAASGSIFSKYAMGWYRQAPGKEREFVAAISRSGGRTYYADSVKGRFTISRDNAKNTVYLQMNSLKPEDTAVYYCAAYPYNPRRRTEGDYWGQGTQVTVSS | high polyreactivity
16 | QVQLVESGGGLLQAGGSLRLSCAASGRTFGSYAKGWYRQAPGKERELVAGIRSDDITHYADSVKGRFTISRDNAKNTVYLQMNSLKPEDTAVYYCAKDYKCIATEGAFDYWGQGTQVTVSS | low polyreactivity
17 | QVQLVESGGGLVQAGGSLRLSCAASGRIFYPYAMGWYRQAPGKERELVAAISFRDGSTYYADSVKGRFTISRDNAKYTVYLQLNILKPEDTAVYYCAAVGQTHPTSPLYTKYDYWGQGTQVTVSS | low polyreactivity
18 | QVQLVESGGGLVQAGGSLRLSCAASGSIFFKYTLGWYRQAPGKERELVAAISYSGGRTYYADSVKGRFTISRDTAKNTVYLQMNSLKPEDTAVYDGATRDEITHGDRMDYWGQGTQVTVSS | low polyreactivity
19 | QVQLVESGGGLVQAGGSLRLSCAASGITFVGNDMGWYRQAPGKERELVATISSSGTRTYYADSVKGRFTISRDNAKNTVYLLMNSLKPEDTAVYYCAARWRSYITYWFDYWGQGTQVTVSS | low polyreactivity
20 | QVQLVESGGGLVQAGGSLRLSCAASGSTFRQYAMGWYRQEPGKERELVAAITWRGDNTYYADSVKGRFTISRDNAKNTVYLQMNSLKPEDTAVYYCAAEYTVYVTDWYDYYYWGQGTQVTVSS | low polyreactivity
21 | QVQLVESGGGLVQAGGSLRLSCAASGLIFTRNFMGWYRQAPGKERELVAAITSGGSTYYADSVKRRFTISRDNAKNTVYLQMNSLNPEDTADYYCAAGCDYLLSTVRFDYWGQGTQVTVSS | high polyreactivity
22 | QVQLVESGGGLVQAGGSLRLSCAASGLTFAYYAMGWYRQAPGKERELVATISRSGSTYYADSVKGRFTISRDNAKNTVYLQMNSLKPEDTAVDYCATAYHHYVYRQYTFGRGIYDFWGQGTQVTVSS | high polyreactivity

Row | Sequence | polyreactivity (PSR sort gate)
23 | QVQLVESGGGLVQAGGSLRISCAASGFIFRPNAMGWYRQAPGKERELVAAITRDGDRTYYADSVKGRFTISRDNAKNTVYLQMNSLKPEDTAVYYCAADVIQWWTRYYTWEYDYWGQGTQVTVSS | low polyreactivity
24 | QVQLVESGGGLVQAGGSLRLSCAASGTFFIYAMGWYRQAPGKERELVATISTGGSTNYADSVKGRFTISRDNAKNTVYLQMNSLKPEDTAVYYCAAEWLYPHDGGYPRPMDYWGQGTQVTVSS | low polyreactivity
25 | QVQLVESGGGLVQAGGSLRLSCAASGLTFGSYAMGWYRQAPGKERELVAAISRSGGSTYYADSVKGRFTISRDNAKNTVYLQMNSLKPEDTAVYYCNAVNPYYAPTDRRVGYDYWGQGTQVTVSS | high polyreactivity
26 | QVQLVESRGGLVQAGGSLRLSSAASGFTFHGNAMRWYRQAPGKERQLVAGISSSGASTYYADSVKGRFTISRDNAKNTVYLQMNILKPEDTAVYYCAVRYYGRYLRYNYCGQGTQVTVSS | high polyreactivity
27 | QVQLVESGGGLVQAGGSLRLSCAASGLTFKYYAMGWYRQAPGKERELVAAITATGGRTYYADSVKGRFTISRDIAKNTVYLQLNSLNPEDTAVYYCNARQYQTYYFYKHDYWGQGTQVSVSS | high polyreactivity
28 | QVQLVESGGGLVQAGGSLRLSCAASGFIFRYYAMGWYRQAPGKERELVAAINASGGRTYYADSVKGRFTISRDNARNTVYFQMNSLKPEDSAVYYCAAYRSYQTFDYWGQGTQVTVSS | high polyreactivity
29 | QVQLVESGGGLVQAGGSLRLSCAASGSIFGPYVMGWYRQAPGKEREFVAAIRGSGGSTYYADSVKGRFTISRDNAKNTVYLQMNSLKPEDTAVYYCNARLKYTLYYYWGQGTQVTVSS | high polyreactivity
30 | QVQLVESGGGLVQAGGSLRLSCAASGSIVTSNAMGWYRQAPGKERELVAAITSSSSTNYADSVKGRFTISRDNAKNTVYLQMNSLKPEDTAVYYCAADYTWYYPYWIMDYWGQGTQVTVSS | low polyreactivity
31 | QVQVVESGGGLVQAGGSLRLSCAASGLTFQVYAKGWYRQAPGKERELVARISSSGSSTYADSVKGRFTISRDNAKNTVYLQMNSLKPEDTAVYYCNAGKRQRGEYWGQGTQVTVSS | high polyreactivity
32 | QVQLVESGGGLVQAGGSLRLSCAASGRTFYSYAMGWYRQAPGKERELVAGITWSGTSTYYADSVKGRFTISRDNAKNTVYLQMNSLKPEDTAVYYCAADSIQYTARPYDYWGQGTQVTVSS | low polyreactivity
33 | QVQLVESGGGLVQAGGSLRLICAASGFIFKWNAMGWYRQAPGKERELVAAITSGGGTYYADSVKGRFTISRDNAKNTVYLQMNSLKPEDTAVYYCAALGRYWPARRFDYWGQGTQVTVSS | high polyreactivity
34 | QVQLVESGGGLVQAGGSLSLSCAATGRTFVKNAMGWYRQAPGKERELVASISRSGGSTYYADSVKGRFTISRDTAKNTVYLQMNSLKTEDTAVYYCNAAVYGGYSRSRYGYWGQGTQVTVSS | high polyreactivity
35 | QVQLVESGGGLVQAGGSLRLSCAPSGSIFHYYAMGWYRQAPGKERELVAAISWSGGRTNYADSVKGRFTISSDNAKNTVYLQMNSLKPEDTAVYYCAAGNSFSDRGHRVYFQYYYWGQGTQVTVSS | high polyreactivity
36 | QVQLVESGGGLVQAGGSLRLSCAASGGTLATYAMGWYRQAPGKERELVARIRIGGSTNYADSVKGRFTISRDNAKNTVYLQMNSLKPEDTAVYYCNKYSVLSRQRYSHPVNYDSWGQGTQVTVSS | high polyreactivity
37 | QVQLVESGGGLVQAGGSLRLSCASSGFTFSIYAMGWYRQAPGKERELVAAISSSGGITYYADAVKGRFTISRDNAKNTVYLQMKSLKPEDTAVYYWNKYFKTFYVSYLHDYWGQGTQVSVSS | high polyreactivity
38 | QVQLVESGGGLVQAGGSLRLSCAASGFIFSSYTMGWYRQAPGKERELVAAITSRGGSTYYADSVKGRLTISRDNAKNTVYLQMNSLKPEDTAVYDWNARRIPYSPYGVHEGYYWGLGTQVTVSS | high polyreactivity
39 | QVQLVESGGGLVQAGGSLRLSCAASGSTFYKYAMGWYRPAPGKESELVAAISRGGSTYYADSVKGRFTISRDNAKNTFYLQMNSLKPEDTAVYYCAAETVSYYSKYDYWGQGTQVTVSS | low polyreactivity
40 | QVQLVESGGGLDQAGGSLRLSCAASGSIIYWYAKGWYRQAPGKERELVADISRGGITNYADSVKGRFTISRDNEKNTVYLQMNSLKPEDTAFYYCAKTHYGVQRLDSWGQGTQVTVSS | low polyreactivity
41 | QVQLVDSGGGLVQAGGSLRLSCAASGSTFRLYAMGWYRQAPGKERELVAAISQRGGSTYYADSVKGRFTISRDNAKNTVYLQKNSLKPEDTAVYYCNTDWYRKWGKPYYYWGQGTQVTVSS | high polyreactivity
42 | QVQLVESGGGLVQAGVSLRLSCAASGRTFEYNAMGWYRQAPGKERELVATIRYSGTSTYADSVKGRFTISRDNAKNTVYLQMNSLKPEDSAVYYFAKQVRYYGYKYNYWGLGTQVTVSS | high polyreactivity
43 | QVQLVESGGGLVQAGGSLRLSCAASGSIFAWYGMGWSRQAPGKERELVAAISTAGSTNYADSVKGRFTISRDNAKNTVYFQMNSLKPEDTAVYYCAKKSSWYYPERFDYWGQGTQVTVSS | low polyreactivity
